For experiment [1], the target named is T1, human CD73 expressed at the cell surface (human, UniProt P21589 27-549).
T1 construct: GPI-anchored dimer on cells; also called huCD73; cellular CD73
T1 sequence: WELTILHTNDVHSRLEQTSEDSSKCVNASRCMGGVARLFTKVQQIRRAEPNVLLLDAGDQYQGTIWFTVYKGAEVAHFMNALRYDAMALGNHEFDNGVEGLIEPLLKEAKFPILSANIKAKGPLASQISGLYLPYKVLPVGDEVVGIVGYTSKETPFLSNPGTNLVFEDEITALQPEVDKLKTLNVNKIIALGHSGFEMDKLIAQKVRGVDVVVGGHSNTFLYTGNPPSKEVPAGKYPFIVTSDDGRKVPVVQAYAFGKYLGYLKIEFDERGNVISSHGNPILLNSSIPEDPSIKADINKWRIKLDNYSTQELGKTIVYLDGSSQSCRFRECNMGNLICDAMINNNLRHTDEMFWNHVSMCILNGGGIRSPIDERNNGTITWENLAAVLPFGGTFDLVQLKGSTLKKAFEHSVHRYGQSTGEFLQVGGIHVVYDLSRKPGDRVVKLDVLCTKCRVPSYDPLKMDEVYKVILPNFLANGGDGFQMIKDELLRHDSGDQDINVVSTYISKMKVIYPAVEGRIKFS
Put plainly: flow cytometry on MDA-MB-231 cells pre-incubated with 200 µM APCP. Here is the method:
MDA-MB-231 cells are available from ATCC (reference HTB-26). 10⁵ cells resuspended in PBS/0.2% BSA/0.02% NaN3 (named “staining buffer”) are distributed into round bottom 96W-microplates. Dose-range of anti-CD73 antibodies was added to the plates and cells are incubated for 45 min at 4° C. Cells were washed three times in staining buffer by spinning plates at 400 g for 3 min at 4° C. PE-coupled goat anti-mouse or goat anti-human IgG Fc fragment secondary antibodies (Beckman Coulter) diluted in staining buffer were added to the cells and plates are incubated for 30 additional minutes at 4° C. Cells were washed three times as described above and analyzed on an Accury C6 flow cytometer equipped with an HTFC plate reader.
Cells were pre-incubated at 37° C. for 30 minutes in the presence or not of 200 μM adenosine 5′-(α,β-methylene)diphosphate (APCP), followed by addition of antibodies. APCP is an analog of ADP and binds irreversibly to the active site of CD73. When bound by APCP, CD73 changes conformation from an “open” conformation to a “closed” conformation. mAbs 11E1, 8C7, 3C12 and 6E1 bound MDA-MB-231 cells with good affinity both in the presence and absence of APCP. In the presence of APCP, the EC50 was similar to that observed in the absence of APCP. The plateau for maximal binding of 11E1, 8C7, 3C12 and 6E1 was higher in the absence of APCP than in the presence of APCP, while the inverse was true for AD2.
(Flow cytometry measures light scatter and fluorescence of single cells or particles in a stream.)

For experiment [2], the target named is T1, human CD73 expressed at the cell surface. In words: cell-based or functional assay.
The target in experiment [3] is T2, cynomolgus CD73 expressed on a recombinant host cell line (cynomolgus).
T2 construct: whole, on cells; also called cynoCD73
In words: flow cytometry titration on a cynomolgus-CD73-expressing recombinant host cell line, median of fluorescence.

Experiment [4] deals with T3, recombinant human CD73-His extracellular domain protein (soluble dimer) (human, UniProt P21589 27-547).
T3 construct: Purified as a dimer; also called huCD73; soluble recombinant human CD73
T3 sequence: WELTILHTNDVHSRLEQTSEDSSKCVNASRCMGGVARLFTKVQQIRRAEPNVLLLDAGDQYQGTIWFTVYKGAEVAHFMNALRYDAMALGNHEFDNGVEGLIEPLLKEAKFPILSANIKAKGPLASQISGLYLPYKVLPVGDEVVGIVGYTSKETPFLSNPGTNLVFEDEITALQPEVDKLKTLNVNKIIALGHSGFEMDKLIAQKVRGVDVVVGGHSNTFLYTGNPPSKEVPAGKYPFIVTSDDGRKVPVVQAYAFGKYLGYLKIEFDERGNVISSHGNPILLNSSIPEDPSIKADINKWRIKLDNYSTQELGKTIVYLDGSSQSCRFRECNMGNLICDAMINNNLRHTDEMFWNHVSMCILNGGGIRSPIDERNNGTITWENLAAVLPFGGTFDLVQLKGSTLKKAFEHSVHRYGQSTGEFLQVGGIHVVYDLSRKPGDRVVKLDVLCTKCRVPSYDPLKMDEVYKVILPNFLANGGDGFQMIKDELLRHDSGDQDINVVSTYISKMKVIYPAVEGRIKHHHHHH
Put plainly: ELISA, plate-coated recombinant human CD73. How it is done: 5 μg/ml of recombinant human CD73 protein (IPH, isoform E6) was coated on MaxiSorp ELISA plates (Nunc) in PBS, overnight at 4° C. Plates were washed 5 times in washing buffer (PBS, 0.05% Tween20) and unspecific sites were saturated by adding 200 μl/w TBS starting block buffer (Thermo Ficher). Dose-range of anti-CD73 antibodies were incubated for 2 h at 37° C. Plates were washed 5 times in washing buffer and HRP-coupled goat anti-human or goat anti-mouse IgG Fc fragment secondary antibody (Bethyl, 1/50000) was added for 1 hr at RT to detect bound anti-CD73 antibodies. […] The enzymatic reaction was stopped by adding HCl 1M and O.D. was measured at 450 nm. Optical density vs. anti-CD73 Ab concentration was plotted on graphs and EC50 is calculated using GraphPad Prism software.
In general terms: In an ELISA, binding on a coated surface is turned into a signal by an enzyme label.

Experiment [5] has as its target T1, human CD73 expressed at the cell surface. In words: flow cytometry titration on HEK293T cells transfected with wild type human CD73, mean of fluorescence.

A value given as a limit tells only on which side of the number the result lay.

The source of these data is US20180030144A1 (INNATE PHARMA, published 2018).

In general, EC50 refers to the concentration that produces a half-maximal response. By EC50 (read off the curve) is commonly meant the concentration that produces a half-maximal response.

B1: antibody 11E1 (antibody, human IgG1, V domains shown)
VH: EIQLQQSGPELVKPGASVKVSCKASGYAFTSYNMYWVKQSHGKSLEWIGYIDPYNGGTSYNQKFKGKATLTVDKSSSTAYMHLNSLTSEDSAVYYCARGYGNYKAWFAYWGQGTLVTVSA
VL: DAVMTQTPKFLLVSAGDRVTITCKASQSVTNDVAWYQQKPGQSPKLLIYYASNRYTGVPDRFTGSGYGTDFTFTISTVQAEDLAVYFCQQDYSSLTFGAGTKLELK
notes: Produced as chimeric human IgG1 with heavy chain N297Q (Kabat EU numbering); also called 1E11
B1: the EC50 in experiment [1] amounted to 0.0375 µg/mL; in experiment [4], 0.012 µg/mL. Moreover, the “decrease of the enzymatic activity of cellular CD73 (MDA-MB-231 cells)” value (shortened to “decrease”) in experiment [2] was greater than 75%. Further, the half-maximal effective concentration (EC50 (read off the curve)) in experiment [3] is roughly 0.4 µg/mL.

B2: antibody 6E1 (antibody, human IgG1, V domains shown)
VH: EFQLQQSGPELVKPGASVKVSCKASGYAFTSYNMYWVKQSHGKRLEWIGYIDPYNGGSSYNQKFKGKATLTVDKSSSTAYMHLNNLTSEDSAVYYCARGYNNYKAWFAYWGQGTLVTVSA
VL: SIVMTQTPKFLLVSAGDRVTITCKASQSVTNDVAWYQQKPGQSPKLLIYYASNRYTGVPDRFTGSGYGTDFTFTISTMQAEDLAVYFCQQDYSSLTFGAGTKLELK
notes: Produced as chimeric human IgG1 with heavy chain N297Q (Kabat EU numbering)
For the molecule B2, the values for the EC50 in experiment [1] and in experiment [4] were 0.0395 µg/mL and 0.014 µg/mL, respectively. The “decrease” value in experiment [2] was greater than 75%. Further, the concentration for a half-maximal effect (EC50 (read off the curve)) in experiment [3] was roughly 0.4 µg/mL.

B3: antibody 3C12 (antibody, human IgG1, V domains shown)
VH: QIQLQQSGPELVKPGASVKVSCKASGYAFASYNMNWVKQSHGKSLDWIGYIDPYNGGSSYNLTFKGKATLTVDKSSTTAYMHLNSLTSEDSAVYYCARGYGNYKAWFAYWGQGTLVTVSA
VL: DVVMTQTPKFLLVSAGDRVTITCKASQSVSNDVAWYQQKPGQSPKLLIYYASTRYTGVPDRFTGSGYGTDFTFTISTVQAEDLAVYFCQQDYSSLTFGAGTKLELKR
notes: Produced as chimeric human IgG1 with heavy chain N297Q (Kabat EU numbering); RTVAAP)
Take B3: the EC50 in experiment [1] worked out at 0.0431 µg/mL; in experiment [4], 0.014 µg/mL. Further, the figures for the concentration giving a half-maximal response (EC50 (read off the curve)) in experiment [5] and in experiment [3] were roughly 0.2 µg/mL and roughly 0.4 µg/mL, respectively. Besides, the “decrease” value in experiment [2] is greater than 75%.
